Patent US6123948

Biological target: HPV-6 L2E7 fusion protein (encoded by plasmid pGW53: pelB leader, HPV-6 L2, HPV-6 E7, His Tag) (human papillomavirus type 6 (HPV-6), clinical isolate H26) (UniProt P06464)

draining (axillary) lymph node cells from B6CBA mice immunized with L2E7/Alum (cells without a defined receptor)
incorporation of tritiated thymidine (in-vitro lymphoproliferative response) (stimulation index): 50
